For the test, the target named is recombinant M. smegmatis RNAP β′ subunit (N-terminal 6xHistidine) (M. smegmatis, UniProt A0QS66 1-1317). The experiment in a line: co-IP.

Here are results for one molecule from paper PMC5610943 (Journal of molecular biology, 2017).

B1: purified recombinant MsmTopoI (enzyme, M. smegmatis, UniProt A0R5D9 1-936, looked up)
chain: MAGGDRGSGGTGNVRRLVIVESPTKARKIAGYLGSNYVVESSRGHIRDLPRNAADVPAKFKSEPWARLGVNVDQNFEPLYIVSPEKKSTVTELKGLLKDVDELYLATDGDREGEAIAWHLLETLKPRVPVKRMVFHEITEPAIRNAAENPRDLDIALVDAQETRRILDRLYGYEVSPVLWKKVAPKLSAGRVQSVATRIIVQRERERMAFHSASYWDVTAELDASVSDPSASPPKFTAKLNTVDGRRVATGRDFDSLGQLKRPDEVLVLDEASAGALASGLRGAQLAVTSVEQKPYTRRPYAPFMTSTLQQEAARKLRFSSERTMSIAQRLYENGYITYMRTDSTTLSESAINAARTQARQLYGEEYVHPSPRQYTRKVKNAQEAHEAIRPAGDVFQTPGQLHSALDTDEFRLYELIWQRTVASQMADARGTTLSLRIGGSASSGEQVVFNASGRTITFPGFLKAYVESIDELAGGESDDAESRLPNLTQGQRVDAADLSADGHQTSPPARYTEASLIKALEELGIGRPSTYSSIIKTIQDRGYVQKKGSALVPSWVAFAVVGLLEQHFGRLVDYDFTAAMEDELDEIANGQEQRTNWLNNFYFGGEHGVEGSIARAGGLKQLVGGNLEGIDAREVNSIKVFDDSEGRPVYVRVGRNGPYLERMVDDPDNPGEQKPQRANLKEDLTPDELTPELAEKLFATPQEGRSLGIDPETGHEIVAKDGRFGPYVTEVLPEPEDGGDDGTAGTPAKKGKKPTGPKPRTGSLFRSMDLETVTLEDALKLLSLPRVVGVDPTTNEEITAQNGRYGPYLKRGTDSRSLATEDQIFTITLDEALKIYAEPKRRGRQAASAPPLRELGNDPVSGKPMVIKDGRFGPYVTDGETNASLRKGDDVLTITDERASELLADRRARGPVKKKAPAKKAAKKAPAKKAAAKKA
B1: the binding result was “binds”.
